Assay results from PMC12219854 (Nature Communications, 2025).
Each block holds one binder with its values, some of them ahead of it.

Assays:
[1] = target: GST-Bahcc1^TTD (murine Bahcc1 amino acids 1904-2044) (mouse, UniProt Q3UHR0 1904-2044); test: pull-down
[2] = target: GST-53BP1^TTD (amino acids 1235-1709) (UniProt Q12888 1235-1709); test: pull-down
Sequence of GST-53BP1^TTD (amino acids 1235-1709) (Q12888 1235-1709): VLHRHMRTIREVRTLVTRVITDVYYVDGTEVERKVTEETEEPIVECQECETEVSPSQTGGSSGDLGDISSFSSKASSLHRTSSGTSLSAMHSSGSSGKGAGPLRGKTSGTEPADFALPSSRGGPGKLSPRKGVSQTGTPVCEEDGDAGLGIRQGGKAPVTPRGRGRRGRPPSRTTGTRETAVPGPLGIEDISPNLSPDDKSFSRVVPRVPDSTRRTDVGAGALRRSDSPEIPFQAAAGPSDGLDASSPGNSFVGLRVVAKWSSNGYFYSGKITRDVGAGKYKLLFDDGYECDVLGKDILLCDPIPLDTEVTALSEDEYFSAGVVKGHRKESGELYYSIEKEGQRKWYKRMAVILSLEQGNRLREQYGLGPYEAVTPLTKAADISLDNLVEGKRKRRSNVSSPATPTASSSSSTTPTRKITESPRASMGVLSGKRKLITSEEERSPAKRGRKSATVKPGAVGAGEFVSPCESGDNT

Sequence of GST-Bahcc1^TTD (murine Bahcc1 amino acids 1904-2044) (Q3UHR0 1904-2044): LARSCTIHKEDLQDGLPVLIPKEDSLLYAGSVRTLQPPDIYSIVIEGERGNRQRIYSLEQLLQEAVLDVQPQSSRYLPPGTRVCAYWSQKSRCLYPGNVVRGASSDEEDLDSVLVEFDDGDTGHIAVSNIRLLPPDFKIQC

- binding result [1]: binds
B1: biotinylated H4 peptide, amino acids 11 to 27, H4K20me1 (peptide, UniProt P62805 12-28, looked up)
peptide: GKGGAKRHRKVLRDNIQ
modifications: monomethyl-lysine at K20; biotin (position not given)

- binding result [2]: binds
B2: biotinylated H4 peptide, amino acids 11 to 27, H4K20me2 (peptide, UniProt P62805 12-28, looked up)
peptide: GKGGAKRHRKVLRDNIQ
modifications: dimethyl-lysine at K20; biotin (position not given)
